Assays:
[1] = system: patients with relapsed or refractory follicular lymphoma (R/R FL); test: Phase Ib/II study, FL dose-escalation phase: safety (adverse events, DLTs, RP2D) of G+Pola+V; assay type: in vivo; conditions: in combination with venetoclax 800 mg and obinutuzumab 1000 mg
Source text: This Example describes a Phase Ib/II study evaluating the safety and efficacy of obinutuzumab (G) in combination with polatuzumab vedotin (Pola) and venetoclax (V) in patients with relapsed or refractory follicular lymphoma (R/R FL) and rituximab (R) in combination with polatuzumab vedotin and venetoclax in patients with relapsed or refractory diffuse large B-cell lymphoma (R/R DLBCL).
This Phase Ib/II, open-label, multicenter, non-randomized study evaluated the safety, efficacy, and pharmacokinetics of obinutuzumab (G)+Polatuzumab vedotin (Pola)+venetoclax (V) in patients with R/R FL and rituximab (R)+Pola+V in patients with R/R DLBCL.
This dose-escalation phase included FL patients only.
All patients enrolled in the dose-escalation phase received induction treatment, administered in 21-day cycles as shown in Table 1. […]
The observation period was based on evaluation of dose-limiting toxicities (DLTs) in cycle 1. […] If no additional DLTs were reported, the next dose could be evaluated. […]
Adverse events are assessed according to the adverse event severity grading scale for the NCI CTCAE (v4.0). […]
Laboratory assessments and adverse events (AEs) were assessed throughout the study, with complete blood counts performed on days 1, 8, and 15 of cycle 1, on day 1 of cycles 2-6, and monthly during maintenance treatment. […]

patients with R/R NHL = conditions: human, in vivo; cited from earlier work

| Substance | Recommended Phase II dose (RP2D) [1] | Incidence of Grade 3-4 neutropenia (patients with R/R NHL) |
| --- | --- | --- |
| polatuzumab vedotin: anti-CD79b immunoconjugate, CAS Registry Number 1313206-42-6; humanized antibody conjugated to MMAE via mc-val-cit-PABC linker | 1.8 mg/kg | – |
| obinutuzumab | – | 5% |

Reference: US20230270875A1, “METHODS OF USING ANTI-CD79B IMMUNOCONJUGATES” (Genentech, Inc., priority 2020, published 2023)
